From paper PMC5206748

Columns and labels:
[1] = target: human P-cadherin expressed on CHO cells (human) (UniProt P22223)
[2] = target: TSP7 S77R (scFv) (mouse); experiment: SPR; scFv (100 nM) captured on anti-His6-tag antibody on a CM5 chip; analyte 1.25-20 nM strand-swap dimer or 6.25-100 nM monomer construct; global fitting
Sequence of TSP7 S77R (scFv) (mouse) (heavy, as listed by the source): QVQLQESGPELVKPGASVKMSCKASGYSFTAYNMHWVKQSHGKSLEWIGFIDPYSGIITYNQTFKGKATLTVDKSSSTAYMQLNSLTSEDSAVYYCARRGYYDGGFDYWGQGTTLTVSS

Sequence of human P-cadherin expressed on CHO cells (P22223 108-829): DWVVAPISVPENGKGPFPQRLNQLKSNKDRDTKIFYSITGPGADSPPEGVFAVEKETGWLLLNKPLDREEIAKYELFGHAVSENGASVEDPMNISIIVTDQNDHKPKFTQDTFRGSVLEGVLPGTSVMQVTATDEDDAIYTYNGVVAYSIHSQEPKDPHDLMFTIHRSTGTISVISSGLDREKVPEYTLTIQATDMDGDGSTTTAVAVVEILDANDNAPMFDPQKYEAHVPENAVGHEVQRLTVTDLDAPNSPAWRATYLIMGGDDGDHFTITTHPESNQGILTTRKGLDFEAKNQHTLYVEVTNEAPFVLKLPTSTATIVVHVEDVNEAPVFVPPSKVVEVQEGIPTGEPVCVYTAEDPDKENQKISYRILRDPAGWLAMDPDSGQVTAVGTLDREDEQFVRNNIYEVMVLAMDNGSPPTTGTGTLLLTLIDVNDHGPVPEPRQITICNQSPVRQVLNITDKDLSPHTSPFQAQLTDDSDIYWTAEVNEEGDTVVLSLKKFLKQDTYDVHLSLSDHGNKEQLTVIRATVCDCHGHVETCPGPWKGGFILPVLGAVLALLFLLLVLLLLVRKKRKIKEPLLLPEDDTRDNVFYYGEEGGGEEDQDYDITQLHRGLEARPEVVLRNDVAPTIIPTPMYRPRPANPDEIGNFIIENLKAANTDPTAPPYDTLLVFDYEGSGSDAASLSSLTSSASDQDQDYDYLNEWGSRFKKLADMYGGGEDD

Row | loss of dense fluorescent puncta of P-cadherin WT-mGFP at cell-cell boundaries of CHO cells after 100 nM TSP7 (0-120 min) [1] [%] | fold change of affinity against TSP7 WT [2] [fold lower] | Substance
1 | 90 | – | human P-cadherin expressed on CHO cells (from UniProt P22223 108-829) (natural protein)
2 | – | 2 | human P-cadherin EC12 K14E (domain or fragment)
